Laboratory results reported in US20080248026.

Tested on: T1, purified murine β-catenin protein
T1 sequence: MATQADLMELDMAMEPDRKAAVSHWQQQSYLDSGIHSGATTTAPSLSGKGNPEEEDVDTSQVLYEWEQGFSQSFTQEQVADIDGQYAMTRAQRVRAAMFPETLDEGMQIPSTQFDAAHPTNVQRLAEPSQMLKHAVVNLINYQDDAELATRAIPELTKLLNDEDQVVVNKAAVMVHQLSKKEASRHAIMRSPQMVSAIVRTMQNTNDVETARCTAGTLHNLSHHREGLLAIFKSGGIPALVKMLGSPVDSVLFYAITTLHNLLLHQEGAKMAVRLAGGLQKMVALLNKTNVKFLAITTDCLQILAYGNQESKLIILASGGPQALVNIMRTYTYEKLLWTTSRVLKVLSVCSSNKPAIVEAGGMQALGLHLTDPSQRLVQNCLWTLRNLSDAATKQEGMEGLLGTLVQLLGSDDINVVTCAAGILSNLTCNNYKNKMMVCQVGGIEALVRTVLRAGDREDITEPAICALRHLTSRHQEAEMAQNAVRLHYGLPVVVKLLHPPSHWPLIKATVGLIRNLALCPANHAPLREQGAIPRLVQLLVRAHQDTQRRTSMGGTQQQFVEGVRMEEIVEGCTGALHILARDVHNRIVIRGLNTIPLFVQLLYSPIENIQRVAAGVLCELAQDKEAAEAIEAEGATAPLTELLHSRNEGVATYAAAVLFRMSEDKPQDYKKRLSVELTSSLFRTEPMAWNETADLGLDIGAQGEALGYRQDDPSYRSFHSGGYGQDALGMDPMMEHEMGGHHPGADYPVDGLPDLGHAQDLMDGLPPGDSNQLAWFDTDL

Substance: Akt (Cell Signaling)
- in vitro phosphorylation; collision induced dissociation spectrum of the peptide spanning Ser^552 (loss of the 98 Da H3PO4 group): indicating that this peptide (shown in FIG. 5C) is phosphorylated by Akt
